Measured values as given in the supplement of paper PMC7877785.
± gives the uncertainty stated by the source.

Test: self-splicing fitness, log relative to wild type (ln ratio); higher = more splicing; Tetrahymena group I intron in knt gene, E. coli kanamycin selection, DiMSum; sequences stand for … in CUCUCU…GGAGGGAAAAGUUAUCAGGCAUGCACCUGGUAGCUAGUCUUUAAACCAAUAGAUUGCAUCGGUUUAAAAGGCAAGACCGUCAAAUUGCGGGAAAGGGGUCAACAGCCGUUCAGUACCAAGUCUCAGGGGAAACUUUGAGAUGGCCUUGCAAAGGGUAUGGUAAUAAGCUGACGGACAUGGUCCUAACCACGCAGCCAAGUCCUAAGUCAACAGAUCUUCUGUUGAUAUGGAUGCAGUUCACAGACUAAAUGUCGGUCGGGGAAGAUGUAUUCUUCUCAUAAGAUAUAGUCGGACCUCUCCUUAAUGGGAGCUAGCGGAUGAAGUGAUGCAACACUGGAGCCGCUGGGAACUAAUUUGUAUGCGAAAGUAUAUUGAUUAGUUUUGGAGUACUCGUGGUCG
Method in brief: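 Six replicate transformations of E. coli BL21(DE3) with a pET-22b(+) library were grown overnight at 37°C or 30°C. The library randomised all eight P1ex-region intron nucleotides, the intron lying in the knt kanamycin-resistance gene, and plates were LB agar with or without 25 μg/mL kanamycin plus 100 μg/mL carbenicillin, 50 μM IPTG and 0.2% rhamnose. Pooled colonies were amplicon-sequenced on an Illumina HiSeq 2500, and fitness is the DiMSum error-weighted combination of wild-type-normalised replicate fold changes, kanamycin versus none.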

Sequence	self-splicing fitness (ln) (30 °C)	self-splicing fitness (ln) (37 °C)
UGUGAGCAAUAUUACGGCUU	-2.85 ± 0.27	-1.81 ± 0.23
UGUGAGCAAUAUUACGGGAU	-4.32 ± 0.41	-2.17 ± 0.38
UGUGAGCAAUAUUACGGGUA	-2.92 ± 0.2	-2.86 ± 0.31
UGUGAGCAAUAUUACGUACU	-1.72 ± 0.17	0.399 ± 0.15
UGUGAGCAAUAUUACGUCAU	–	-1.32 ± 0.4
UGUGAGCAAUAUUACGUGGC	–	-1.97 ± 0.4
UGUGAGCAAUAUUACGUUUU	-3.15 ± 0.27	-2.98 ± 0.37
UGUUAGCAAUAUUACGAACG	-0.101 ± 0.092	-0.499 ± 0.11
UGUUAGCAAUAUUACGACUG	0.492 ± 0.095	0.167 ± 0.12
UGUUAGCAAUAUUACGCAAG	-3.38 ± 0.37	-2.13 ± 0.4
UGUUAGCAAUAUUACGCUAA	-2.05 ± 0.4	–
UGUUAGCAAUAUUACGCUGC	-1.63 ± 0.18	-2.44 ± 0.32
UGUUAGCAAUAUUACGGACC	0.127 ± 0.12	0.443 ± 0.16
UGUUAGCAAUAUUACGGAGU	–	-2.73 ± 0.27
UGUUAGCAAUAUUACGGCCC	-2.13 ± 0.36	-1.13 ± 0.41
UGUUAGCAAUAUUACGGCGA	0.174 ± 0.14	-0.431 ± 0.15
UGUUAGCAAUAUUACGGCUU	-0.797 ± 0.16	-0.574 ± 0.19
UGUUAGCAAUAUUACGGGCU	-1.9 ± 0.13	-1.5 ± 0.17
UGUUAGCAAUAUUACGGUAU	-2.59 ± 0.4	-1.95 ± 0.28
UGUUAGCAAUAUUACGGUUG	-1.78 ± 0.14	-1.2 ± 0.15
UGUUAGCAAUAUUACGUAUC	–	-0.937 ± 0.26
UGUUAGCAAUAUUACGUGCU	-1.95 ± 0.13	-1.51 ± 0.13
UGUUAGCAAUAUUACGUUAA	-1.85 ± 0.27	-0.838 ± 0.15
UGUUAGCAAUAUUACGUUCC	-2.47 ± 0.29	-2.03 ± 0.41
UGUUAGCAAUAUUACGUUUC	-3.91 ± 0.46	-2.06 ± 0.33

Sequence	self-splicing fitness (ln) (30 °C)	self-splicing fitness (ln) (37 °C)
UUAAAGCAAUAUUACGAAGG	-0.779 ± 0.14	-1.09 ± 0.18
UUAAAGCAAUAUUACGACCG	-0.379 ± 0.12	0.397 ± 0.16
UUAAAGCAAUAUUACGAGGA	-1.84 ± 0.13	-0.545 ± 0.16
UUAAAGCAAUAUUACGAGUG	-0.826 ± 0.058	-0.0213 ± 0.08
UUAAAGCAAUAUUACGCAUA	-0.633 ± 0.072	0.164 ± 0.11
UUAAAGCAAUAUUACGCCCC	-0.451 ± 0.27	0.901 ± 0.38
UUAAAGCAAUAUUACGCCCU	-0.437 ± 0.11	0.33 ± 0.14
UUAAAGCAAUAUUACGCCUG	0.63 ± 0.16	1 ± 0.17
UUAAAGCAAUAUUACGCUAC	-3.55 ± 0.26	-1.91 ± 0.2
UUAAAGCAAUAUUACGGAUA	-0.925 ± 0.13	-0.197 ± 0.16
UUAAAGCAAUAUUACGGCAA	0.101 ± 0.12	0.186 ± 0.16
UUAAAGCAAUAUUACGGCGU	-0.257 ± 0.068	0.33 ± 0.09
UUAAAGCAAUAUUACGGGUU	-3.04 ± 0.15	-1.46 ± 0.13
UUAAAGCAAUAUUACGGUUG	-1.13 ± 0.071	-0.199 ± 0.089
UUAAAGCAAUAUUACGUAAG	-0.67 ± 0.082	-0.258 ± 0.11
UUAAAGCAAUAUUACGUAUC	-2.17 ± 0.12	-1.87 ± 0.16
UUAAAGCAAUAUUACGUCUG	0.0385 ± 0.075	0.255 ± 0.096
UUAAAGCAAUAUUACGUUAG	-0.59 ± 0.095	-0.125 ± 0.097
UUACAGCAAUAUUACGAAGC	–	-1.41 ± 0.4
UUACAGCAAUAUUACGACAU	-1.971 ± 0.014	-1.02 ± 0.033
UUACAGCAAUAUUACGACUU	-1.06 ± 0.11	-0.932 ± 0.11
UUACAGCAAUAUUACGAGCU	-3.55 ± 0.31	-3.12 ± 0.34
UUACAGCAAUAUUACGAGUA	-1.5 ± 0.14	-0.933 ± 0.11
UUACAGCAAUAUUACGAUUA	-0.238 ± 0.094	-0.0645 ± 0.089
UUACAGCAAUAUUACGCAGC	-4.38 ± 0.26	-3.01 ± 0.16
